Source: US20230050148A1, “TGF-BETA INHIBITORS AND USE THEREOF” (SCHOLAR ROCK, INC., priority 2020, published 2023)
Like-named read-outs stand apart in the source and are kept apart here.

How the values were obtained:
[1] = tested on: Cloudman S91 tumors; experiment: Cloudman S91 melanoma model; type: in vivo, DBA/2 mouse; conditions: dose range 3, 10 and 30 mg/kg
Experimental: Clone M3 [Cloudman S91 melanoma] (ATCC® CCL-53.1™) cells were obtained from the American Type Culture Collection (ATCC), and were maintained at CR Discovery Services as exponentially growing suspension cultures in Kaighn's modified Ham's F12 Medium supplemented with 2.5% fetal bovine serum, 15% horse serum, 2 mM glutamine, 100 units/mL penicillin G sodium, 100 μg/mL streptomycin sulfate and 25 μg/mL gentamicin. The tumor cells were grown in tissue culture flasks in a humidified incubator at 37° C., in an atmosphere of 5% CO2 and 95% air.
When tumors reached a volume of 125-175 mm^3 mice were randomized into groups of 12 with identical mean tumor volumes and dosing began.
Group 1 received anti-PD-1 antibody only. […] An untreated control was used, data not shown.
Percent tumor growth delay (% TGD) is defined as the increase in the median time to endpoint in a treatment group compared to the untreated control, expressed as a percentage of the median time to endpoint (TTE) of the control: • T=median TTE for treatment • C=median TTE for control
Results are summarized below (see FIGS. 9, 11 & 12).
(§1) All antibodies were dosed intraperitoneally.

[2] = tested on: MBT2 tumors; experiment: MBT2 syngeneic bladder cancer model, efficacy; type: in vivo, C3H/HeN mouse
Experimental: Group 1 received anti-PD-1 antibody only. […] An untreated control was used, not shown.
as §1

[3] = tested on: intratumoral immune cells in MBT2 tumors; experiment: MBT2 tumor immune contexture (flow cytometry, IHC, qPCR); type: in vivo, mouse; conditions: MBT-2
Text: To study the immune effects of anti-PD-1 or Ab6-mIgG1 treatment as single agents or in combination, MBT-2 tumors were harvested from mice 10 days after treatment initiation and then subjected to immunohistochemical and flow cytometry analyses of select immune cell markers. […] The relevance of this increase in Treg cells is unclear given the significant anti-tumor effects observed with combination treatment. […] This appears to be due to selective reduction in CD11 b+CD206+ and CD11 b+Gr1+ subpopulations, which correspond to immunosuppressive M2-like macrophages and myeloid-derived suppressor cells (MDSC), respectively. Collectively, the representation of these two populations of cells is reduced from an average of 47% of the CD45+ cell population to 14% after combination treatment (FIG. 28B).
Each study group contained 12 mice with MBT2 tumors as described herein. […]
Flow cytometric analysis: Tumor-associated immune cell subsets were also analyzed by tumor flow cytometry in MBT-2 tumors. […] Flow cytometry was performed on a Attune NxT (ThermoFisher) and analyzed with FlowJo (BD Bioscience).
For immunohistochemical analysis, tumors from six animals were cut in halves and fixed. […] FIG. 30E provides the quantitation of the IHC data, shown as % of CD8-positive cells of total nuclei. […]

[4] = tested on: EMT6 tumors; experiment: EMT-6 syngeneic breast carcinoma model; type: in vivo, BALB/c mouse; conditions: dose 10 mg/kg
Experimental: EMT6 tumors were implanted subcutaneously. Treatment began when EMT6 tumors reached 30-80 mm^3. Anti-PD-1 was dosed at 10 mkg twice weekly. […] Anti-TGFβ3 neutralizing antibody was dosed at 30 mkg once weekly.
Responders are defined as those achieving tumor size of <25% of the endpoint volume at study end.
as §1

[5] = first-in-human dose selection (allometric scaling, PAD, safety factors); conditions: S91, MBT-2, EMT-6 models, with anti-PD-1
Experimental: In vivo pharmacology data was utilized to predict the human pharmacological active dose (PAD) and recommended the FIH dose. In addition, safety margins were determined between the predicted exposure at the recommended FIH dose and the exposure achieved at the NOAELs in toxicology studies.

[6] = mouse, in vivo, iv
Experimental: Pharmacokinetics studies were conducted in female C57BL/6 mice, SD rats, and cynomolgus monkeys. […] A non-GLP single-dose PK study was performed in C57BL/6 mice (10-11 weeks) at Gateway Pharmacology Laboratories in Chesterfield, Mo. Additional pharmacokinetic and toxicology studies were conducted in naive young adult Sprague Dawley rats (7-10 weeks) and cynomolgus monkeys (2-4 years).
The lower limit of quantitation (LLOQ) for the non-GLP assays were 125, 125, and 250 ng/mL for the mouse, rat, and cynomolgus monkey, respectively; and 75 ng/mL for the optimized and validated GLP assays (rat and monkey). The absorbance-versus concentration relationship was regressed using a 4-parameter logistic curve fit (with a weighting factor of 1/Y2 for the validated assays to support the toxicokinetic studies), and concentrations were calculated using GraphPad Prism or Watson LIMS (Thermo, Pennsylvania, USA) data reduction software.
Female mice were group housed (3-5 mice/cage) in polycarbonate cages containing appropriate bedding and water valves in a controlled environment (17.8-26.7° C.; 30-70% relative humidity; 12-hour light and dark cycles) and were offered standard rodent chow (PicoLab Rodent Diet 20) and tap water ad libitum. Mice were randomly assigned to treatment groups for all studies.
PK parameters were calculated in Phoenix® WinNonlin® (Certara USA Inc.) from the concentration-time data using a noncompartmental analysis method with intravenous (IV) bolus input. Nominal doses and sampling times were used. […] Area under the concentration time curve (AUC) was computed using the linear trapezoidal approximation method. Terminal half-life (t1/2) was estimated by log-linear regression of the terminal phase of the mean concentration versus time profiles. At least 3 points clearly visible in the terminal phase, an r^2 value of at least 0.8, and time interval of at least 3 half-lives (in the GLP toxicity studies only) were required to characterize half-life.

[7] = target: T1, human GARP-ProTGFb1 (Homo sapiens, UniProt P01137); experiment: SPR (Biacore 8K) Fab binding kinetics; conditions: Fab 0.62-10 nM, 1:1 binding model
T1 construct: made in house
Experimental: (§2) Briefly, the binding kinetics were evaluated by surface plasmon resonance using Biacore 8K (GE Healthcare). A Biotin CAP sensor chip was used to capture the biotinylated antigens. Fabs at various concentrations (0 nM, 0.62 nM, 1.25 nM, 2.5 nM, 5 nM and 10 nM) were injected over the captured antigens. Multi-cycle kinetics was employed where each analyte concentration was injected in a separate cycle and the sensor chip surface was regenerated after each cycle. All the assays were carried out in freshly prepared 1×HBS-EP+ buffer (10 mM HEPES, 150 mM NaCl, 3 mM EDTA, 0.05% Tween20, pH 7.4). Data for all the analyte concentrations for each interaction were fit globally to a 1:1 binding model to obtain the kinetic parameters. The Sensorgram for 0 nM analyte concentration was used as reference.
(§3) Binding kinetics was evaluated by surface plasmon resonance using a Biacore 8K (GE) instrument. Biotinylated antigens were captured on a Biotin CAP chip and the Fab fragments of the antibodies were used as analytes. Sensorgrams for Fab binding at variable concentrations (0.6-10 nM) were globally fit to obtain the kinetic parameters. Binding kinetics for the Fabs were evaluated against each of the four human antigens, LTBP1-ProTGFb1, LTBP3-ProTGFb1, GARP-ProTGFb1, and LRRC33-ProTGFb1.

[8] = target: T2, human LRRC33-ProTGFb1 (Homo sapiens, UniProt P01137); experiment: SPR (Biacore 8K) Fab binding kinetics; conditions: Fab 0.62-10 nM, 1:1 binding model
T2 construct: made in house
Experimental: as §2, §3

[9] = target: T3, human LTBP1-ProTGFb1 (Homo sapiens, UniProt P01137); experiment: SPR (Biacore 8K) Fab binding kinetics; conditions: Fab 0.62-10 nM, 1:1 binding model
T3 construct: made in house; host or cells: Expi293F cells, co-transfected with pTT5 plasmids
Experimental: as §2, §3

[10] = target: T4, human LTBP3-ProTGFb1 (Homo sapiens, UniProt P01137); experiment: SPR (Biacore 8K) Fab binding kinetics; conditions: Fab 0.62-10 nM, 1:1 binding model
T4 construct: made in house; host or cells: Expi293F cells, co-transfected with pTT5 plasmids
Experimental: as §2, §3

[11] = target: T5, proTGFβ1 / latent TGFβ1 (Homo sapiens, UniProt P01137, C33S); experiment: HDX-MS epitope mapping; conditions: Fab binding
T5 construct: The small latent TGFβ complexes were expressed with an N-terminal His-tag; His-tag (N); made in house; host or cells: Expi293F cells
Text: To gain initial insights into the inhibitory mechanism of action for the isoform-selective inhibitors of TGFβ1 activation, we performed Hydrogen-Deuterium Exchange Mass Spectrometry (H/DX-MS) analysis to identify possible sites of latent TGFβ1 interaction with the antibody. Hydrogen/Deuterium exchange mass spectrometry (HDX-MS) is a widely used technique for exploring protein conformation in solution. HDX-MS methodology is described in Wei et al., Drug Discov Today. 2014 January; 19(1): 95-102, incorporated by reference in its entirety herein. Briefly, HDX-MS relies on the exchange of the protein backbone amide hydrogens with deuterium in solution. […]
Accurate mass and collision-induced dissociation in data-independent acquisition mode (MSE) and ProteinLynx Global Server (PLGS) 3.0 software (Waters Corp., Milford, Mass.) were used to determine the peptic peptides in the undeuterated protein samples analyzed on the same UPLC-ESI-QToF system used for H/DX-MS experiments. […] The relative deuterium incorporation of each peptide was determined by subtracting the weight-averaged centroid mass of the isotopic distribution of undeuterated control sample from that of the weight-averaged centroid mass of the isotopic distribution of deuterium-labeled samples at each labeling time point. […]

T1 sequence (P01137 30-390): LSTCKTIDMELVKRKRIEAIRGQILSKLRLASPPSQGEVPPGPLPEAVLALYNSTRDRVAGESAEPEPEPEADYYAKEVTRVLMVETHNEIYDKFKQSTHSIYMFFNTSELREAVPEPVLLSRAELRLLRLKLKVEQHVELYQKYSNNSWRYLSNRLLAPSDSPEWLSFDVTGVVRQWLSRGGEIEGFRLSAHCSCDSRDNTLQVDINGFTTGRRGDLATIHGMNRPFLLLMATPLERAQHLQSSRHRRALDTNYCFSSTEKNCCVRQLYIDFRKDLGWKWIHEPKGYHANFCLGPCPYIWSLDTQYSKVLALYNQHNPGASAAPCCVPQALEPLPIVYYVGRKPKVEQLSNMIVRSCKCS
T1 sequence (Q14392 20-627 partner limits assumed): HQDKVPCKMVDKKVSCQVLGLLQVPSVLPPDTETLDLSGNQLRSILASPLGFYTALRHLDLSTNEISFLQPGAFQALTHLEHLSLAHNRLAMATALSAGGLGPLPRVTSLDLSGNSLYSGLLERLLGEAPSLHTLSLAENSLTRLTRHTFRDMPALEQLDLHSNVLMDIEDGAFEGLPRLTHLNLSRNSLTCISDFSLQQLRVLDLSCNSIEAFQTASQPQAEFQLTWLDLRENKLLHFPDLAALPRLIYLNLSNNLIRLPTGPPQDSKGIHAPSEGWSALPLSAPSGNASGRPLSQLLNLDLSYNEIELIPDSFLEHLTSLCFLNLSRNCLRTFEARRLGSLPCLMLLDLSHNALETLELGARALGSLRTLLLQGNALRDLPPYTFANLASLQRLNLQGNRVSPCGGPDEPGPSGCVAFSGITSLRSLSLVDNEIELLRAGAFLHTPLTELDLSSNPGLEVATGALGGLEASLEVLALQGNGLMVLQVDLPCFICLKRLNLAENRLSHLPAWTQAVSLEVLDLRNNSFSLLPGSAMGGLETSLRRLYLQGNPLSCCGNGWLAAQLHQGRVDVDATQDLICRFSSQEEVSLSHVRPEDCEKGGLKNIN
T2 sequence (P01137 30-390): as the sequence (P01137 30-390) above
T2 sequence (Q86YC3 19-650 partner limits assumed): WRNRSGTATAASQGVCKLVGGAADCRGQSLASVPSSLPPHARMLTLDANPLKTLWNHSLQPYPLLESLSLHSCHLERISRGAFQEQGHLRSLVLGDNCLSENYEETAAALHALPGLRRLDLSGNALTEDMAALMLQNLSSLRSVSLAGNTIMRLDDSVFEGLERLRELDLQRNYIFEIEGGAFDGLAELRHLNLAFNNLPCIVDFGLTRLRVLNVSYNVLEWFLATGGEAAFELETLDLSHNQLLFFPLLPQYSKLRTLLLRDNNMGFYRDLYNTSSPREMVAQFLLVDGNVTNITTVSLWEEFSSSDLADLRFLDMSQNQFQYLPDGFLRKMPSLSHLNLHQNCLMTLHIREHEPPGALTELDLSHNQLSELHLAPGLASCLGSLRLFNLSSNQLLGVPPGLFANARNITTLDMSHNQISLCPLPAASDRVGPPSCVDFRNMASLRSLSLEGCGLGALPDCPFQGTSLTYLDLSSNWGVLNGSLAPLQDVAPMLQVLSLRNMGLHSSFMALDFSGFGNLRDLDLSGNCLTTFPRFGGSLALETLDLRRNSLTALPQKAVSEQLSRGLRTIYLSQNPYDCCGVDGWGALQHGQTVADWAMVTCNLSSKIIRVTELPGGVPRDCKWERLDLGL
T4 sequence (P01137 30-390): as the sequence (P01137 30-390) above
T4 sequence (Q9NS15 866-1039 partner limits assumed): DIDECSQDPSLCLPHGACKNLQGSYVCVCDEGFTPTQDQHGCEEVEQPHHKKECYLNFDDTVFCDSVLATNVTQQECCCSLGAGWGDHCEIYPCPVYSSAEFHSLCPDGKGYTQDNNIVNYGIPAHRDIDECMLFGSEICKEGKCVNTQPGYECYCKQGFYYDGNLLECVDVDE
T3 sequence (P01137 30-390): as the sequence (P01137 30-390) above
T3 sequence (Q14766 873-1507 partner): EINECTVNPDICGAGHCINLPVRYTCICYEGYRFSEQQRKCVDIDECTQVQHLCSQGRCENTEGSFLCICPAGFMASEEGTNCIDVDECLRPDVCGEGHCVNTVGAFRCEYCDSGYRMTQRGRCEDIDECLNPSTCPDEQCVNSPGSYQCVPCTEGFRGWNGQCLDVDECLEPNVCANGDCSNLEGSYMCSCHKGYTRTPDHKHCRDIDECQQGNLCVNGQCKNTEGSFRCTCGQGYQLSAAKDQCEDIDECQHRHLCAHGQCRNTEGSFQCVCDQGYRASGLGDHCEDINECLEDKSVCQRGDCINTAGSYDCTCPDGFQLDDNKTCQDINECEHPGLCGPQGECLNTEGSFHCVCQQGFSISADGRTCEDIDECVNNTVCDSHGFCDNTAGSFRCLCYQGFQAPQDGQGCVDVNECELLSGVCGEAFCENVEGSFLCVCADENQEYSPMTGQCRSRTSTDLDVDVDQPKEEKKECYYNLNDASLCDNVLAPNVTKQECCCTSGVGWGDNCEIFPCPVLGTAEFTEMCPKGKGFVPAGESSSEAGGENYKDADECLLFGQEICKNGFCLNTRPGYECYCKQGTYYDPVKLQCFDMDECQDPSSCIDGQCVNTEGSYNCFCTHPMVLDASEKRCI
T5 sequence (P01137 with tags, fused parts or gaps C33S): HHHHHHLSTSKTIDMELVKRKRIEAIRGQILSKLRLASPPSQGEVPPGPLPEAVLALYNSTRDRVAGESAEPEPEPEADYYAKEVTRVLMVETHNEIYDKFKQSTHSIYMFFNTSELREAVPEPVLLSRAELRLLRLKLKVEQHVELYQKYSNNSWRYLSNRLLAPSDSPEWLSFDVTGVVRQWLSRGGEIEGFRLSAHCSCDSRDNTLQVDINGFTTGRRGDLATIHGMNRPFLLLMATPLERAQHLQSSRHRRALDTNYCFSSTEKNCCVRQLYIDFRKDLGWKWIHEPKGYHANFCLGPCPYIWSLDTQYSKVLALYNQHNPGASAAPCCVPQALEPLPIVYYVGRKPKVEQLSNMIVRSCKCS

B1: Ab6-mIgG1: chimeric antibody with the human V domains of Ab6 fused to mouse IgG1/kappa constant domains (protein)
heavy chain: EVQLVESGGGLVQPGGSLRLSCTASGFTFSSFSMDWVRQAPGKGLEWVSYISPSADTIYYADSVKGRFTISRDNAKNTLYLQMNSLRAEDTAVYYCARGVLDYGDMLMPWGQGTLVTVSS
light chain: DIQMTQSPSSLSASVGDRVTITCQASQDITNYLNWYQQKPGKAPKLLIYDASNLETGVPSRFSGSGSGTDFTFTISSLQPEDIATYYCQQADNHPPWTFGGGTKVEIK
For B1, the PAD [1] was 3 mg/kg, the tumor-free survivors ([2]; MBT2, 3 mg/kg per week + anti-PD-1) was 21% and the tumor-free survivors ([2]; MBT2, 10 mg/kg per week + anti-PD-1) was 36%. The PAD ([2]; MBT-2, dose range 3 and 10 mg/kg) was 10 mg/kg, the “pSmad3 staining in tumor vascular endothelium” value [3] was “much diminished” and the PAD [4] was 10 mg/kg. The “pharmacologically active dose (range)” value [5] was 3-10 mg/kg, the “Cmax (mean, range over dose groups)” value [6] was 7.4 to 664 µg/mL and the AUC0-inf ([6]; 3 mg/kg) was 4.89 mg·h/mL. It also gave an AUClast ([6]; 3 mg/kg) of 4.71 mg·h/mL, an AUC0-inf ([6]; 10 mg/kg) of 17.8 mg·h/mL and an AUClast ([6]; 10 mg/kg) of 17.4 mg·h/mL. It also gave an AUC0-inf ([6]; 30 mg/kg) of 64.2 mg·h/mL and an AUClast ([6]; 30 mg/kg) of 64.1 mg·h/mL.

B2: Ab6 Fab: Fab fragment of Ab6 used as analyte in SPR and in HDX-MS (antibody, V domains shown)
VH: EVQLVESGGGLVQPGGSLRLSCTASGFTFSSFSMDWVRQAPGKGLEWVSYISPSADTIYYADSVKGRFTISRDNAKNTLYLQMNSLRAEDTAVYYCARGVLDYGDMLMPWGQGTLVTVSS
VL: DIQMTQSPSSLSASVGDRVTITCQASQDITNYLNWYQQKPGKAPKLLIYDASNLETGVPSRFSGSGSGTDFTFTISSLQPEDIATYYCQQADNHPPWTFGGGTKVEIK
With B2 the koff [7] was 0.000218 s⁻¹, the kon [7] was 2.1e+06 M⁻¹ s⁻¹ and the koff [8] was 0.000123 s⁻¹. The kon [8] was 845000 M⁻¹ s⁻¹, the koff [9] was 0.000255 s⁻¹ and the kon [9] was 2.05e+06 M⁻¹ s⁻¹. For the same molecule, the koff [10] was 0.000831 s⁻¹, the kon [10] was 1.7e+06 M⁻¹ s⁻¹ and the “regions on proTGFβ1 strongly protected from deuterium exchange” value [11] was “three binding regions”.
